According to US20180037644A1 (Pfizer, published 2018):

Experiments:
human IL-33 WT (R&D) [1] = target: T1, human IL-33 WT (R&D) (human, UniProt O95760 112-270); experiment: SPR, Fab captured by anti-human Fab kit, reduced IL-33 (R&D) in solution
T1 construct: R&D Systems Cat. No. 3625-IL/CF, wild-type cysteines; DTT pretreatment in some assays is said under assay or readout; also called IL-33 (R&D); hIL-33 (R&D)
T1 sequence: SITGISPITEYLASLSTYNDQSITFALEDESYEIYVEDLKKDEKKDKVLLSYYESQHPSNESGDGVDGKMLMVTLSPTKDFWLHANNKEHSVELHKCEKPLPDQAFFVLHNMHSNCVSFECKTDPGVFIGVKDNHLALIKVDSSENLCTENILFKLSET
Protocol: (§1) Fab fragment affinity was measured by two methods, surface plasmon resonance using a BIAcore instrument, with either Fab or IL-33 captured on the chip, and solution equilibrium affinity measurements using a KinExA instrument, with both Fab and IL-33 in solution.
(§2) Surface plasmon resonance experiments were conducted in two formats.

human IL-33 (mm2) [2] = target: T2, human IL-33 (mm2) (human, UniProt O95760 112-270); experiment: KinExA, fixed-antigen format, both partners in solution
T2 construct: Variant in which all four cysteine residues are serine; the entry carries an N-terminal Met and a C-terminal His6; Biotinylated in some assays; also called hIL-33 (mm2); huIL-33 (mm2)
T2 chain: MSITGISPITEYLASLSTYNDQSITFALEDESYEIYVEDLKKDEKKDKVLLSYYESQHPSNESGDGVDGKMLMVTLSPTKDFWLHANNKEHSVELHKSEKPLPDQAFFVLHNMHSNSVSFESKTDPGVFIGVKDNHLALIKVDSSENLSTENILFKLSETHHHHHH
Protocol: (§3) HuIL33 wt was reduced in 3 mM DTT for a minimum of two hrs prior to use. Affinity determinations were made at room temperature using the fixed antigen assay format. Equilibrium binding was achieved by incubation at 25° C. for 72 hrs. Data analysis was performed with the KinExA Pro software version 3.6.5 (Sapidyne). […] The “drift correction” was used when appropriate. Multiple curves were obtained, both receptor and KD controlled, in independent experiments and analyzed using the “n-curve analysis” tool to obtain global best fit values for the KD and active concentration. The software reports each best fit value along with a 95% confidence interval.
(§4) Table 13. Affinity determinations were made using the fixed-antigen assay format. […] The 95% confidence interval, shown in parentheses with the kD, and percent error are calculated by KinExA software based on a least-squares fit of the theoretical binding equation to the measured signals.

[3] = target: T3, human IL-33 WT, reduced with DTT (human, UniProt O95760 112-270); experiment: as above
T3 construct: Wild-type cysteines, FLAG tag in the entry; reduced with 3 mM DTT before use; also called huIL33 wt; hu IL-33 (WT + DTT)
T3 sequence: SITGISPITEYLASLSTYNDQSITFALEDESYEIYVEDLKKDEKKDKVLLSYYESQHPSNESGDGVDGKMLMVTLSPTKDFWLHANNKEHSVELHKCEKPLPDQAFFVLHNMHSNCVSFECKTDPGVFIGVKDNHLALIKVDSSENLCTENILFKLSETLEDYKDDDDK
Protocol: as §3, §4

human IL-33 WT (R&D) [4] = target: T1, human IL-33 WT (R&D); experiment: SPR, Fab captured by anti-human Fab kit, reduced IL-33 (R&D) in solution; captured Fab, reduced WT IL-33 in solution
human IL-33 (mm2) [5] = target: T2, human IL-33 (mm2); experiment: SPR, biotinylated IL-33 on streptavidin sensor, Fab in solution
Protocol: as §1, §2

B1: 7E8 CDR graft Fab (Fab, V domains shown)
VH: EVQLVESGGGLVQPGGSLRLSCAASGFTFSSYWMYWVRQAPGKGLEWVASITPNGGNTYYPDSVKGRFTISRDNAKNSLYLQMNSLRAEDTAVYYCARGHYYYTSYSLGYWGQGTLVTVSS
VL: DIQMTQSPSSLSASVGDRVTITCKASQNINKHLDWYQQKPGKAPKLLIYFTNNLQTGVPSRFSGSGSGTDFTLTISSLQPEDFATYYCFQYNNGWTFGGGTKVEIKR
notes: also called 7E8 Fab; CDR grafted-7E8 Fab
- Kd (human IL-33 WT (R&D) [1]): 290 pM
- koff (human IL-33 WT (R&D) [1]): 0.000377 s⁻¹
- Kd (human IL-33 (mm2) [2]): 0.351 pM
- Kd [3]: 4.04 pM
- kon (human IL-33 WT (R&D) [4]): 2.06e+06 M⁻¹ s⁻¹
- Kd (human IL-33 (mm2) [5]): 3.06 pM
- koff (human IL-33 (mm2) [5]): 1.68e-05 s⁻¹
